# Measured values from the supplement of paper PMC11780869.
# System: Bacillus subtilis
# Test: cleaved RNA product abundance (RNA/gDNA barcode ratio) relative to median wild-type variant (ratio to wild type); higher = more accumulation of the downstream cleavage product
# Settings: cleavage site: cggR-gapA (positions -7 to +36 mutated)
# Description: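 MPRA in B. subtilis. Mutagenized RNase Y cleavage-site regions (9% mutation rate) were inserted into a barcoded reporter mRNA (truncated aprE or tetM). Cells were grown in LB at 37°C to OD600 0.3. The cleaved RNA isoform was gel-purified and its barcodes counted; the RNA:gDNA barcode ratio was normalised to the median wild-type variant, and the median over barcodes is reported per variant. The printed sequence is the variable window only; the reporter flanks are not printed.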
# [1] = experiment (reporter, strain, medium): exp 4a: truncated aprE reporter, strain BJT201 with 2% xylose (RNase J1 expressed)
# [2] = experiment (reporter, strain, medium): exp 2b: truncated aprE reporter, strain BJT200
Sequence,cleaved RNA product abundance [1],cleaved RNA product abundance [2]
ACAGACGAAGGAGCCGCAAAAAAGTTCTTAAGGGATGAATAATCCCTCAATATAAATATCTCTCACTTATTTAAA,0.218,
ACAGACGAAGGAGCCGCAAAAAAGTTGTTAAGGGATGAATAATCCCTCAATATAAATATCTCTCACTTATTTAAA,0.355,0.388
ACAGACGAAGGAGCCGCAAAAAAGTTTTTAAGGGATGAATAATCCCTCAATATAAATATCTCTCACTTATTTAAA,0.435,0.281
ACAGACGAAGGAGCCGCAAAAAATTTATTAAGCGATGAATAATCCCTCAATATAAATATCTCTCACTTATTTAAA,0.113,
ACAGACGAAGGAGCCGCAAAAAATTTATTAAGGGATGAATAATCCCTCAATATAAATATCTCTCACTTATTTAAA,0.66,1.19
ACAGACGAAGGAGCCGCAAAAACGTTATTAAGGGATGAATAATCCCTCAATATAAATATCTCTCACTTATTTAAA,1.04,
ACAGACGAAGGAGCCGCAAAAAGGTTATTAAGGGATGAATAATCCCTCAATATAAATATCTCTCACTTATTTAAA,1.68,
ACAGACGAAGGAGCCGCAAAAATGTTATTAAGGGATGAATAATCCCTCAATATAAATATCTCTCACTTATTTAAA,0.983,
ACAGACGAAGGAGCCGCAAAACAGTTATTAAGGGATGAATAATCCCTCAATATAAATATCTCTCACTTATTTAAA,0.897,0.865
ACAGACGAAGGAGCCGCAAAAGAAGTTATTAAGGGATGAATAATCCCTCAATATAAATATCTCTCACTTATTTAA,1.06,
ACAGACGAAGGAGCCGCAAAATAGTTATTAAGGGATGAATAATCCCTCAATATAAATATCTCTCACTTATTTAAA,0.703,
ACAGACGAAGGAGCCGCAAACAAATTATTAAGGGATGAATAATCCCTCAATATAAATATCTCTCACTTATTTAAA,0.696,0.711
ACAGACGAAGGAGCCGCAAACAACTTATTAAGGGATGAATAATCCCTCAATATAAATATCTCTCACTTATTTAAA,,0.172
ACAGACGAAGGAGCCGCAAACAAGATATTAAGGGATGAATAATCCCTCAATATAAATATCTCTCACTTATTTAAA,0.827,
ACAGACGAAGGAGCCGCAAACAAGGTATTAAGGGATGAATAATCCCTCAATATAAATATCTCTCACTTATTTAAA,1.23,
ACAGACGAAGGAGCCGCAAACAAGTAATTAAGGGATGAATAATCCCTCAATATAAATATCTCTCACTTATTTAAA,0.214,0.177
ACAGACGAAGGAGCCGCAAACAAGTGATTAAGGGATGAATAATCCCTCAATATAAATATCTCTCACTTATTTAAA,0.27,0.223
ACAGACGAAGGAGCCGCAAACAAGTTAATAAGGGATGAATAATCCCTCAATATAAATATCTCTCACTTATTTAAA,0.274,
ACAGACGAAGGAGCCGCAAACAAGTTACTAAGGGATGAATAATCCCTCAATATAAATATCTCTCACTTATTTAAA,,0.169
ACAGACGAAGGAGCCGCAAACAAGTTATAAAAGGATGAATAATCCCTCAATATAAATATCTCTCACTTATTTAAA,,0.139
ACAGACGAAGGAGCCGCAAACAAGTTATAAAGGGATGAATAATCCCTCAATATAAATATCTCTCACTTATTTAAA,0.408,
ACAGACGAAGGAGCCGCAAACAAGTTATGAAGGGATGAATAATCCCTCAATATAAATATCTCTCACTTATTTAAA,0.239,
ACAGACGAAGGAGCCGCAAACAAGTTATTAAAGGATGAATAATCCCTCAATATAAATATCTCTCACTTATTTAAA,0.116,0.121
ACAGACGAAGGAGCCGCAAACAAGTTATTAAAGGATGAATAATCCCTCATTATAAATATCTCTCACTTATTTAAA,0.115,
ACAGACGAAGGAGCCGCAAACAAGTTATTAAATGATGAATAATCCCTCAATATAAATATCTCTCACTTATTTAAA,0.101,
ACAGACGAAGGAGCCGCAAACAAGTTATTAACGGATGAATAATCCCTCAATATAAATATCTCTCACTTATTTAAA,0.0915,0.111
ACAGACGAAGGAGCCGCAAACAAGTTATTAAGAGATGAATAATCACTCAATATAAATATCTCTCACTTATTTAAA,0.126,0.106
ACAGACGAAGGAGCCGCAAACAAGTTATTAAGAGATGAATAATCCCTCAATATAAATATCTCTCACTTATTTAAA,0.118,0.0959
